Read-outs that look alike come from different tables or passages of the source.
T1: P6-AA-12HGe-M
T1 chain: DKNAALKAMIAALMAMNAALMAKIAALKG

T2: P6-AA-12HGe-W
T2 chain: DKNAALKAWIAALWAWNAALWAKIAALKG

T3: P6-AA-12HGe-T
T3 chain: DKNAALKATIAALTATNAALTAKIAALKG

T4: P6-AA-12HGe-A
T4 chain: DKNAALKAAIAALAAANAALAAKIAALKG

T5: P6-AA-12HGe-R
T5 chain: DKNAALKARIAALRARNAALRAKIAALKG

T6: P6-AA-12HGe-Q
T6 chain: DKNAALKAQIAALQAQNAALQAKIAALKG

T7: P6-AA-12HGe-D
T7 chain: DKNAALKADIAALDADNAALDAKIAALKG

T8: P6-AA-12HGe-S
T8 chain: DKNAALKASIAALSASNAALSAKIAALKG

T9: P6-AA-12HGe-H
T9 chain: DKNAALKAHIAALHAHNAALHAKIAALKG

T10: P6-AA-12HGe-K
T10 chain: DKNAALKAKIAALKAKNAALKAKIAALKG

T11: 4H906-bN
T11 chain: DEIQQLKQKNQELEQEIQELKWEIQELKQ

T12: 4H3497-bN
T12 chain: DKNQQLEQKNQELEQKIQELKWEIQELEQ

T13: 4H3613-bN
T13 chain: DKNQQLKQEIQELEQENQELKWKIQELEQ

T14: 4H626-bN
T14 chain: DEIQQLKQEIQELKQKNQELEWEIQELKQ

T15: 4H3628-bN
T15 chain: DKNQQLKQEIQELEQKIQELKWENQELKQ

T16: 4H3926-bN
T16 chain: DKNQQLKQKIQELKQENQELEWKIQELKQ

T17: 4H3462-bN
T17 chain: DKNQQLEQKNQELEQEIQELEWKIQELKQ

T18: 4H591-bN
T18 chain: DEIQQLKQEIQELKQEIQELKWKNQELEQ

T19: O8-bP
T19 chain: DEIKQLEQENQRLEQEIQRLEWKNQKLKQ

T20: 4H780-bN
T20 chain: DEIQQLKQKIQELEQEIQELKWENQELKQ

T21: 4H4073-bN
T21 chain: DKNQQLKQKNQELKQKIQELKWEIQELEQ

T22: 4H855-bN
T22 chain: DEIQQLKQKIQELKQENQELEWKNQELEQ

T23: 4H346-bN
T23 chain: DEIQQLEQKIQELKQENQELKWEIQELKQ

T24: 4H575-bN
T24 chain: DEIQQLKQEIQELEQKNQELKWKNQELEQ

T25: 4H683-bN
T25 chain: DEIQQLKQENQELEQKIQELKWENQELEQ

T26: 4H797-bN
T26 chain: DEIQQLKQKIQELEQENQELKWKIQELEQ

T27: 4H3427-bN
T27 chain: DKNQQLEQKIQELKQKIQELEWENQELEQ

T28: 4H918-bN
T28 chain: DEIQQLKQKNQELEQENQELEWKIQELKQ

T29: 4H457-bN
T29 chain: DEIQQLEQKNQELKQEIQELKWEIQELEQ

T30: 4H953-bN
T30 chain: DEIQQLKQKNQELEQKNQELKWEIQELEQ

T31: 4H754-bN
T31 chain: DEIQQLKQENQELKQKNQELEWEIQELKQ

T32: 4H968-bN
T32 chain: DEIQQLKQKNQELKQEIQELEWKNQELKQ

T33: 4H3112-bN
T33 chain: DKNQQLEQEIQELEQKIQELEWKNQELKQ

T34: 4H3010-bN
T34 chain: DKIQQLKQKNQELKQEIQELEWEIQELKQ


Key:
P6-AA-12HGe-M = target: T1, P6-AA-12HGe-M; test: two-hybrid library CCmax; settings: mean of both orientations;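 also: natural log of median RNA to DNA barcode read ratio; higher means stronger binding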
P6-AA-12HGe-W = target: T2, P6-AA-12HGe-W; test: two-hybrid library CCmax; settings: mean of both orientations;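 also: natural log of median RNA to DNA barcode read ratio; higher means stronger binding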
P6-AA-12HGe-T = target: T3, P6-AA-12HGe-T; test: two-hybrid library CCmax; settings: mean of both orientations;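 also: natural log of median RNA to DNA barcode read ratio; higher means stronger binding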
P6-AA-12HGe-A = target: T4, P6-AA-12HGe-A; test: two-hybrid library CCmax; settings: mean of both orientations;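 also: natural log of median RNA to DNA barcode read ratio; higher means stronger binding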
P6-AA-12HGe-R = target: T5, P6-AA-12HGe-R; test: two-hybrid library CCmax; settings: mean of both orientations;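 also: natural log of median RNA to DNA barcode read ratio; higher means stronger binding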
P6-AA-12HGe-Q = target: T6, P6-AA-12HGe-Q; test: two-hybrid library CCmax; settings: mean of both orientations;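 also: natural log of median RNA to DNA barcode read ratio; higher means stronger binding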
P6-AA-12HGe-D = target: T7, P6-AA-12HGe-D; test: two-hybrid library CCmax
P6-AA-12HGe-S = target: T8, P6-AA-12HGe-S; test: two-hybrid library CCmax; settings: mean of both orientations
P6-AA-12HGe-H = target: T9, P6-AA-12HGe-H; test: two-hybrid library CCmax; settings: mean of both orientations
P6-AA-12HGe-K = target: T10, P6-AA-12HGe-K; test: two-hybrid library CCmax; settings: mean of both orientations
4H906-bN = target: T11, 4H906-bN; test: two-hybrid library CCNG1
4H3497-bN = target: T12, 4H3497-bN; test: two-hybrid library CCNG1
4H3613-bN = target: T13, 4H3613-bN; test: two-hybrid library CCNG1
4H626-bN = target: T14, 4H626-bN; test: two-hybrid library CCNG1
4H3628-bN = target: T15, 4H3628-bN; test: two-hybrid library CCNG1
4H3926-bN = target: T16, 4H3926-bN; test: two-hybrid library CCNG1
4H3462-bN = target: T17, 4H3462-bN; test: two-hybrid library CCNG1
4H591-bN = target: T18, 4H591-bN; test: two-hybrid library CCNG1
O8-bP = target: T19, O8-bP; test: two-hybrid library CCNG1
4H780-bN = target: T20, 4H780-bN; test: two-hybrid library CCNG1
4H4073-bN = target: T21, 4H4073-bN; test: two-hybrid library CCNG1
4H855-bN = target: T22, 4H855-bN; test: two-hybrid library CCNG1
4H346-bN = target: T23, 4H346-bN; test: two-hybrid library CCNG1
4H575-bN = target: T24, 4H575-bN; test: two-hybrid library CCNG1
4H683-bN = target: T25, 4H683-bN; test: two-hybrid library CCNG1
4H797-bN = target: T26, 4H797-bN; test: two-hybrid library CCNG1
4H3427-bN = target: T27, 4H3427-bN; test: two-hybrid library CCNG1
4H918-bN = target: T28, 4H918-bN; test: two-hybrid library CCNG1
4H457-bN = target: T29, 4H457-bN; test: two-hybrid library CCNG1
4H953-bN = target: T30, 4H953-bN; test: two-hybrid library CCNG1
4H754-bN = target: T31, 4H754-bN; test: two-hybrid library CCNG1
4H968-bN = target: T32, 4H968-bN; test: two-hybrid library CCNG1
4H3112-bN = target: T33, 4H3112-bN; test: two-hybrid library CCNG1
4H3010-bN = target: T34, 4H3010-bN; test: two-hybrid library CCNG1

Binder	interaction score (P6-AA-12HGe-M)	interaction score (P6-AA-12HGe-W)	interaction score (P6-AA-12HGe-T)	interaction score (P6-AA-12HGe-A)	interaction score (P6-AA-12HGe-R)	interaction score (P6-AA-12HGe-Q)	interaction score (P6-AA-12HGe-S)	interaction score (P6-AA-12HGe-H)	interaction score (P6-AA-12HGe-K)	interaction score (P6-AA-12HGe-D; mean of both orientations)	also measured
DENAALEAMIAALMAMNAALMAEIAALEG [P5-AA-12HGe-M]	0.995	-0.0463	1.54	1.15	0.594	2.16	-0.47	-0.103	1.12	–	interaction score (P6-AA-12HGe-D): -1.48
DENAALEAEIAALEAENAALEAEIAALEG [P5-AA-12HGe-E]	0.542	-0.981	0.892	1.23	1.58	2.02	-0.0947	2.11	1.8	-1.51	–
DKNQQLEQKNQELEQEIQELEWKIQELKQ [4H3462-bN]	–	–	–	–	–	–	–	–	–	–	interaction score (4H906-bN): -0.328; interaction score (4H3497-bN): 0.781; interaction score (4H3613-bN): -0.0373; interaction score (4H626-bN): 0.696; interaction score (4H3628-bN): 0.522; interaction score (4H3926-bN): -0.216; interaction score (4H3462-bN): 0.127; interaction score (4H591-bN): -0.826; interaction score (O8-bP): -2.6
DENAALEARIAALRARNAALRAEIAALEG [P5-AA-12HGe-R]	-0.376	-1.7	-0.204	0.13	-1.36	1.15	-0.593	-1.35	-0.748	-0.685	–
DENAALEADIAALDADNAALDAEIAALEG [P5-AA-12HGe-D]	-2.09	-1.67	-1.98	-1.85	-0.833	-1.56	-2.03	-2.35	-0.581	-1.85	–
DENAALEAAIAALAAANAALAAEIAALEG [P5-AA-12HGe-A]	0.58	-0.644	-0.125	-0.0358	0.304	1.38	-1.02	-0.816	0.623	-1.87	–
DKIQQLKQKNQELKQEIQELEWEIQELKQ [4H3010-bN]	–	–	–	–	–	–	–	–	–	–	interaction score (4H780-bN): -0.214; interaction score (4H4073-bN): -1.32; interaction score (4H855-bN): -0.686; interaction score (4H346-bN): -1.97; interaction score (4H575-bN): -1.47; interaction score (4H683-bN): 1.02; interaction score (4H797-bN): -0.873; interaction score (4H3926-bN): -0.546; interaction score (4H3427-bN): -0.668; interaction score (4H918-bN): -0.536; interaction score (4H457-bN): -0.409; interaction score (4H953-bN): -1.77; interaction score (4H754-bN): -1.56; interaction score (4H968-bN): -1.13; interaction score (4H3112-bN): -1.33; interaction score (4H3010-bN): -0.256
DENAALEAQIAALQAQNAALQAEIAALEG [P5-AA-12HGe-Q]	1.12	-1.08	1.2	1.19	1.09	1.76	0.0975	-0.211	1.68	-1.9	–
DENAALEAHIAALHAHNAALHAEIAALEG [P5-AA-12HGe-H]	-1.41	-2.54	-1.15	-1.29	-1.38	-0.057	-2	-1.62	-1.26	-1.79	–

The next lines start with results.

interaction score (P6-AA-12HGe-M)	interaction score (P6-AA-12HGe-W)	interaction score (P6-AA-12HGe-T)	interaction score (P6-AA-12HGe-A)	interaction score (P6-AA-12HGe-R)	interaction score (P6-AA-12HGe-Q)	interaction score (P6-AA-12HGe-S)	interaction score (P6-AA-12HGe-H)	interaction score (P6-AA-12HGe-K)	interaction score (P6-AA-12HGe-D; mean of both orientations)	Binder	also measured
-0.283	-1.07	-0.438	-0.0467	0.245	1.22	-1.32	-1.26	0.446	-1.71	DENAALEATIAALTATNAALTAEIAALEG [P5-AA-12HGe-T]	–
0.011	-1.05	-0.564	-0.131	-1.34	0.162	-0.198	-1.46	-2.03	-1.67	DENAALEAWIAALWAWNAALWAEIAALEG [P5-AA-12HGe-W]	–
0.0241	-0.852	-0.218	-0.307	-0.752	0.323	-1.51	-0.445	-0.203	-1.93	DENAALEAYIAALYAYNAALYAEIAALEG [P5-AA-12HGe-Y]	–
-1.66	-1.53	-1.05	-1.21	-0.734	-0.404	-2.05	-1.52	-0.261	-1.45	DENAALEASIAALSASNAALSAEIAALEG [P5-AA-12HGe-S]	–

— paper PMC10397247
